# Measured values as given in the Immune Epitope Database (IEDB).
# Legend:
# HLA-B*08:01 [1] = assay: IEDB peptide-MHC binding, purified MHC/competitive/fluorescence; filed as Kd, often an IC50 or EC50 that approximates it; ≥ and ≤ were set here for values at or beyond the usual limits of such assays
# HLA-B*15:01 [2] = assay: as above; settings: source organism: Human immunodeficiency virus type 1 (MAL ISOLATE)
# HLA-B*15:17 [3] = assay: as above; settings: source organism: Human immunodeficiency virus type 1 (MAL ISOLATE)
# HLA-B*15:09 = assay: as above; settings: source organism: Human immunodeficiency virus type 1 (MAL ISOLATE)
# HLA-A*01:01 [4] = assay: as above
# HLA-B*38:01 = assay: as above; settings: source organism: Human immunodeficiency virus type 1 (MAL ISOLATE)
# HLA-A*30:01 = assay: as above
# HLA-A*02:12 = assay: IEDB peptide-MHC binding, purified MHC/direct/fluorescence; filed as Kd, often an IC50 or EC50 that approximates it; ≥ and ≤ were set here for values at or beyond the usual limits of such assays; settings: source organism: Vibrio vulnificus CMCP6
# HLA-B*15:17 [5] = assay: as above; settings: source organism: Vibrio vulnificus CMCP6
# HLA-A*26:01 = assay: as above
# HLA-A*02:06 = assay: as above; settings: source organism: Vibrio vulnificus CMCP6
# HLA-B*57:01 [6] = assay: as above; settings: source organism: Vibrio vulnificus CMCP6
# HLA-A*24:03 = assay: as above; settings: source organism: Vibrio vulnificus CMCP6
# HLA-A*03:01 = assay: as above
# HLA-B*51:01 = assay: as above; settings: source organism: Vibrio vulnificus CMCP6
# HLA-B*40:01 = assay: as above
# HLA-A*66:01 = assay: IEDB peptide-MHC binding, purified MHC/competitive/fluorescence; filed as Kd, often an IC50 or EC50 that approximates it; ≥ and ≤ were set here for values at or beyond the usual limits of such assays; settings: source organism: Vibrio vulnificus CMCP6
# HLA-A*29:02 [7] = assay: as above; settings: source organism: Vibrio vulnificus CMCP6
# HLA-B*53:01 = assay: as above; settings: source organism: Vibrio vulnificus CMCP6
# HLA-B*14:02 = assay: as above; settings: source organism: Vibrio vulnificus CMCP6
# HLA-B*18:01 = assay: as above; settings: source organism: Vibrio vulnificus CMCP6
# HLA-A*02:01 [8] = assay: as above; settings: source organism: Vibrio vulnificus CMCP6
# HLA-A*11:01 [9] = assay: as above; settings: source organism: Vibrio vulnificus CMCP6
# HLA-B*58:01 [10] = assay: as above; settings: source organism: Vibrio vulnificus CMCP6
# HLA-B*39:01 = assay: as above; settings: source organism: Vibrio vulnificus CMCP6
# HLA-B*44:02 = assay: as above; settings: source organism: Vibrio vulnificus CMCP6
# HLA-A*23:01 = assay: as above; settings: source organism: Vibrio vulnificus CMCP6
# HLA-B*27:05 [11] = assay: as above; settings: source organism: Vibrio vulnificus CMCP6
# HLA-B*07:02 [12] = assay: as above; settings: source organism: Vibrio vulnificus CMCP6
# HLA-B*08:01 [13] = assay: IEDB peptide-MHC binding, purified MHC/direct/fluorescence; filed as Kd, often an IC50 or EC50 that approximates it; ≥ and ≤ were set here for values at or beyond the usual limits of such assays; settings: source organism: Escherichia coli
# HLA-B*15:02 = assay: as above; settings: source organism: Salmonella enterica subsp. enterica serovar Dublin
# HLA-B*15:01 [14] = assay: as above; settings: source organism: Escherichia coli
# HLA-A*69:01 = assay: as above; settings: source organism: Escherichia coli
# HLA-A*31:01 = assay: as above; settings: source organism: Escherichia coli
# HLA-A*01:01 [15] = assay: as above; settings: source organism: Escherichia coli
# HLA-A*02:01 [16] = assay: as above; settings: source organism: Escherichia coli
# HLA-B*35:01 = assay: as above; settings: source organism: Escherichia coli
# HLA-A*11:01 [17] = assay: as above; settings: source organism: Escherichia coli
# HLA-B*27:05 [18] = assay: as above; settings: source organism: Escherichia coli
# HLA-B*07:02 [19] = assay: as above; settings: source organism: Escherichia coli
# HLA-A*02:07 = assay: IEDB peptide-MHC binding, purified MHC/competitive/radioactivity; filed as Kd, often an IC50 or EC50 that approximates it; ≥ and ≤ were set here for values at or beyond the usual limits of such assays; settings: source organism: Homo sapiens
# HLA-A*29:02 [20] = assay: as above; settings: source organism: Homo sapiens
# HLA-B*57:01 [21] = assay: as above; settings: source organism: Homo sapiens
# HLA-A*02:01 [22] = assay: as above; settings: source organism: Homo sapiens
# HLA-B*58:01 [23] = assay: as above; settings: source organism: Homo sapiens
# [24] = source organism: Human immunodeficiency virus type 1 (MAL ISOLATE)
# [25] = source organism: Vibrio vulnificus CMCP6
# [26] = source organism: Escherichia coli
sequence,measurement,setting,value
GSEEIKSLY,Kd,HLA-B*08:01 [1]; [24],≥ 20 µM
same,Kd,HLA-B*15:01 [2],1.07 µM
same,Kd,HLA-B*15:17 [3],0.0989 µM
same,Kd,HLA-B*15:09,≥ 20 µM
same,Kd,HLA-A*01:01 [4]; [24],0.0503 µM
same,Kd,HLA-B*38:01,≥ 20 µM
same,Kd,HLA-A*30:01; [24],≥ 20 µM
KQIVIINPM,Kd,HLA-A*02:12,0.064 µM
same,Kd,HLA-B*15:17 [5],≥ 20 µM
same,Kd,HLA-A*26:01; [25],≥ 20 µM
same,Kd,HLA-A*02:06,0.002 µM
same,Kd,HLA-B*57:01 [6],≥ 20 µM
same,Kd,HLA-A*24:03,0.135 µM
same,Kd,HLA-A*03:01; [25],≥ 20 µM
same,Kd,HLA-B*51:01,≥ 20 µM
same,Kd,HLA-B*40:01; [25],0.238 µM
same,Kd,HLA-B*08:01 [1]; [25],≥ 5 µM
same,Kd,HLA-A*66:01,≥ 5 µM
same,Kd,HLA-A*29:02 [7],≥ 5 µM
same,Kd,HLA-B*53:01,≥ 5 µM
same,Kd,HLA-B*14:02,≥ 5 µM
same,Kd,HLA-B*18:01,≥ 5 µM
same,Kd,HLA-A*01:01 [4]; [25],≥ 5 µM
same,Kd,HLA-A*02:01 [8],≥ 5 µM
same,Kd,HLA-A*11:01 [9],≥ 5 µM
same,Kd,HLA-B*58:01 [10],≥ 5 µM
same,Kd,HLA-B*39:01,≥ 5 µM
same,Kd,HLA-B*44:02,≥ 5 µM
same,Kd,HLA-A*23:01,≥ 5 µM
same,Kd,HLA-A*30:01; [25],≥ 5 µM
same,Kd,HLA-B*27:05 [11],0.0389 µM
same,Kd,HLA-B*07:02 [12],≥ 5 µM
SSMNSDAAY,Kd,HLA-B*08:01 [13],≥ 20 µM
same,Kd,HLA-B*15:02,0.026 µM
same,Kd,HLA-B*15:01 [14],0.15 µM
same,Kd,HLA-A*26:01; [26],0.0276 µM
same,Kd,HLA-A*69:01,≥ 20 µM
same,Kd,HLA-A*31:01,≥ 20 µM
same,Kd,HLA-A*01:01 [15],0.171 µM
same,Kd,HLA-A*02:01 [16],≥ 20 µM
same,Kd,HLA-B*35:01,0.0115 µM
same,Kd,HLA-A*03:01; [26],≥ 20 µM
same,Kd,HLA-A*11:01 [17],0.144 µM
same,Kd,HLA-B*40:01; [26],≥ 20 µM
same,Kd,HLA-B*27:05 [18],≥ 20 µM
same,Kd,HLA-B*07:02 [19],≥ 20 µM
YMIDPSGVSY,Kd,HLA-A*02:07,12.7 µM
same,Kd,HLA-A*29:02 [20],0.0193 µM
same,Kd,HLA-B*57:01 [21],≥ 31.6 µM
same,Kd,HLA-A*02:01 [22],0.651 µM
same,Kd,HLA-B*58:01 [23],0.589 µM
